Laboratory results published in patent US20080118499.

Target: T1, in vitro translated GGA3 wild type (from HA-GGA3 pcDNA4 plasmid), Q9NZ52
T1 chain: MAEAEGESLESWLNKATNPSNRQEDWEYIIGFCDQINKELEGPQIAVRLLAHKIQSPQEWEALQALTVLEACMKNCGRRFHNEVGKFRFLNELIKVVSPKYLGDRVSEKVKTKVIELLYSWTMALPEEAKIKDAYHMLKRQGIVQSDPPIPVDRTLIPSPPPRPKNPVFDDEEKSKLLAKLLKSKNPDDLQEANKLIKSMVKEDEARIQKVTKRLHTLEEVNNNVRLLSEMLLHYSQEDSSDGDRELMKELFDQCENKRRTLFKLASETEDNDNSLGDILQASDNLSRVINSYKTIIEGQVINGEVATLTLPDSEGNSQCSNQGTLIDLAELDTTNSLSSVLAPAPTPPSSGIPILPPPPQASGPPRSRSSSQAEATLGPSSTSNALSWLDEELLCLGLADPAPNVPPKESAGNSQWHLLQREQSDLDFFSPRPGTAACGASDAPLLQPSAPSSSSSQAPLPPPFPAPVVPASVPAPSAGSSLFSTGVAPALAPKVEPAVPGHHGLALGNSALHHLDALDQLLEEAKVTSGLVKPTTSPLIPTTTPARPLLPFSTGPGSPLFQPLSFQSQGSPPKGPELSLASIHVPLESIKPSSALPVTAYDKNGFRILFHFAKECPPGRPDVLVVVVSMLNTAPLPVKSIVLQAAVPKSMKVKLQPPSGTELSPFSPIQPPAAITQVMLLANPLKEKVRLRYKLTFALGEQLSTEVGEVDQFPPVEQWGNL

B1: recombinant caspase 3 (Pharmingen) (protein)
chain: SGISLDNSYKMDYPEMGLCIIINNKNFHKSTGMTSRSGTDVDAANLRETFRNLKYEVRNKNDLTREEIVELMRDVSKEDHSKRSSFVCVLLSHGEEGIIFGTNGPVDLKKITNFFRGDRCRSLTGKPKLFIIQACRGTELDCGIETDSGVDDDMACHKIPVEADFLYAYSTAPGYYSWRNSKDGSWFIQSLCAMLKQYADKLEFMHILTRVNRKVATEFESFSFDATFHAKKQIPCIVSMLTKELYFYH
**Q.** Which “cleavage of in vitro translated GGA3 (cold methionine), Western blot with anti-GGA3 antibody” value does the source give for B1 here?
**A.** recombinant caspase 3 cleaves in vitro translated GGA3 (cold methionine) in three fragments

**Q.** And the “cleavage of in vitro translated [35S]-methionine-labeled GGA3 (SDS-PAGE, phosphorimager)” value?
**A.** Recombinant caspase 3 cleaved in vitro translated GGA3 in several fragments
